Patent publication US20090068103, “APTAMERS LABELED WITH 68GA” (published 2009)

B1: TTA3 (ssRNA)
RNA: GGGAGGACGCGUCGCCGUAAUGGAUGUUUUGCUCCCUG
modifications: 5'-NH2-C6; mGmGmG mAmGG mAfCmG-(CH2CH2O)6-fCGfU fCGfC fCGfU mAmAfU mGmGmA fUmGfU fUfUfU mGfCfU fCfCfC UG (m=2'-OMe, f=2'-F); 3'-3'-T cap
B2: TTA4 (ssRNA)
RNA: GGGAGGACGCGUCGCCGUAAUGGAUGUUUUGCUCCC
modifications: mGmGmG mAmGG mAfCmG-(CH2CH2O)6-fCGfU fCGfC fCGfU mAmAfU mGmGmA fUmGfU fUfUfU mGfCfU fC(C6-NH2)CfC (m=2'-OMe, f=2'-F); 3'-3'-T cap
B3: TTA5 (ssRNA)
RNA: TAGGGAGGACGCGUCGCCGUAAUGGAUGUUUUGCUCCCUG
modifications: 5'-(aminomodifier C2 dT)-mA mGmGmG mAmGG mAfCmG-(CH2CH2O)6-fCGfU fCGfC fCGfU mAmAfU mGmGmA fUmGfU fUfUfU mGfCfU fCfCfC fUmG (m=2'-OMe, f=2'-F); 3'-3'-T cap
B4: TTA6 (ssRNA)
RNA: B1 RNA
modifications: 5'-NH2-C6-O-SPO-O (PS linkage); mGmGmG mAmGG mAfCmG-(CH2CH2O)6-fCGfU fCGfC fCGfU mAmAfU mGmGmA fUmGfU fUfUfU mGfCfU fCfCfC fUmG (m=2'-OMe, f=2'-F); 3'-3'-T cap
B5: TTA7 (ssRNA)
RNA: B2 RNA
modifications: LGLGLG LALGmG mAfCrG-(CH2OCH2)6-fCGfU fCGfC fCGfU mAmAfU mGmGmA fUmGfU fUfUfU mGLCLU LCLCLC-(CH2)6NH2-3' (m=2'-OMe, f=2'-F, L prefix as printed, LNA inferred, r=ribo)
B6: TTA8 (ssRNA)
RNA: B2 RNA
modifications: mGmGmG mAmGmG mAfCrG-(CH2OCH2)6-fCGfU fCGfC fCGfU mAmAfU mGmGmA fUmGfU fUfUfU mGmCmU mCmCmC-(CH2)6NH2-3' (m=2'-OMe, f=2'-F, r=ribo)

These binders were tested against Tenascin-C (TN-C) (Homo sapiens, UniProt P24821 P24821:23-2201) (assay: competition; filter competition vs 1 nM 99mTc-TTA1-MAG2, 2 nM TN-C; TBSMC pH 7.4, 1 mM CaCl2, 1 mM MgCl2, 37 C). Details: tags: none stated; chain copies: 6.
Tenascin-C (TN-C), sequence (P24821 23-2201, one chain of several): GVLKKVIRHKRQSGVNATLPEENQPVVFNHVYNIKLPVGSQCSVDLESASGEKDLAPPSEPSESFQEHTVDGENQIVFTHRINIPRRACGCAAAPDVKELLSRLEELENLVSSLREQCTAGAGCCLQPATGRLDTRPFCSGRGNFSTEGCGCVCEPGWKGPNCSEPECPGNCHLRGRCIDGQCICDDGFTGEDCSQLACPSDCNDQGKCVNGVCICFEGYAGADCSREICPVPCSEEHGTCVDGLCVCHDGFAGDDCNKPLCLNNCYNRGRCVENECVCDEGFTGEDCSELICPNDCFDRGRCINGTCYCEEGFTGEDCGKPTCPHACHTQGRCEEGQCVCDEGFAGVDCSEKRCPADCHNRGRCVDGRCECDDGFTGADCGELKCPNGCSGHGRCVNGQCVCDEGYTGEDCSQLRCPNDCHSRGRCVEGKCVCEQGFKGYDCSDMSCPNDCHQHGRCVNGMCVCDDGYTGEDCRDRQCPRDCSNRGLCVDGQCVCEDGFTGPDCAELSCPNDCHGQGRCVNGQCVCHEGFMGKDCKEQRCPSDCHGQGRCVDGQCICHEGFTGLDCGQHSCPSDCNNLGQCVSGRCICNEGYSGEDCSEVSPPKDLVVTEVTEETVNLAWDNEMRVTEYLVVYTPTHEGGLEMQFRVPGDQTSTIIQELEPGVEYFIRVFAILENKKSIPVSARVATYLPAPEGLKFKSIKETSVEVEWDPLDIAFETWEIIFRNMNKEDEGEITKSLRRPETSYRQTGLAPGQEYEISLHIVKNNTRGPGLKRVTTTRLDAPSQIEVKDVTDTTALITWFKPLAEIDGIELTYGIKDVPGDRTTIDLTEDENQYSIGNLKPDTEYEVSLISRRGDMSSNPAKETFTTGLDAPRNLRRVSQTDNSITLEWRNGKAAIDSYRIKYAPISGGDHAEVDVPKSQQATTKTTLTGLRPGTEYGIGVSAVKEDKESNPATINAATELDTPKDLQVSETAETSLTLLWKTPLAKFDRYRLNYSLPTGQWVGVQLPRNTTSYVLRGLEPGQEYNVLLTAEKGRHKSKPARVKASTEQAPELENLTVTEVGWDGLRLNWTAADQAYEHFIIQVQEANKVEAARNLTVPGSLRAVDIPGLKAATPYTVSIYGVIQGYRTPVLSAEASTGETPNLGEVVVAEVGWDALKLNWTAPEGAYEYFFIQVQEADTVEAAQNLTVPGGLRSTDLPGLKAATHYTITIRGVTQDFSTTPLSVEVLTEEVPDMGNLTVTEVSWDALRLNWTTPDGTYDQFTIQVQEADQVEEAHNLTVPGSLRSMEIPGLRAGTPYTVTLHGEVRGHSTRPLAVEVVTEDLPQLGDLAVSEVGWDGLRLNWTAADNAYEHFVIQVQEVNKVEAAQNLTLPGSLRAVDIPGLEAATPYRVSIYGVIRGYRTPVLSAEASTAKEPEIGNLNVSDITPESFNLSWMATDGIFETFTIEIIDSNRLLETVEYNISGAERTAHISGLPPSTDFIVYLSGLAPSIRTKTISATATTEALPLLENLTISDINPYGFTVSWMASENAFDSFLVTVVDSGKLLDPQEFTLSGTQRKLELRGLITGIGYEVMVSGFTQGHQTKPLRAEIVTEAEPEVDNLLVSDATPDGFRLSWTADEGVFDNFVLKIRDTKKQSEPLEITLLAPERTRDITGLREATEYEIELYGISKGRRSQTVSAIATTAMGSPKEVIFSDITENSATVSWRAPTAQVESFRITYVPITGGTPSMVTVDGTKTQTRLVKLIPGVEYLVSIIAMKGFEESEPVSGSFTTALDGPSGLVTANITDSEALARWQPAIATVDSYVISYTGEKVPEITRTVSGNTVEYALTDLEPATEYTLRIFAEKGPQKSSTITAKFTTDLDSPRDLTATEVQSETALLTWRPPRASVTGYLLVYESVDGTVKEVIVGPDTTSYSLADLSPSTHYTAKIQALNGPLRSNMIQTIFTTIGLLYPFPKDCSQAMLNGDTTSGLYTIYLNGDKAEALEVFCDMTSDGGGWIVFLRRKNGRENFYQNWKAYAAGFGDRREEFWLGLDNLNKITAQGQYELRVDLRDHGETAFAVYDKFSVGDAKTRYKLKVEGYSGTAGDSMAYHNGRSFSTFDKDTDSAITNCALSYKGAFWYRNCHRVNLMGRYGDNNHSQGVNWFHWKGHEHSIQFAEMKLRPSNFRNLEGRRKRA
Protocol: A competition filter binding assay was carried out in order to determine binding constants (EC₅₀). Samples of 2 nM human TN-C were incubated with 1 nM ^99mTc-TTA1-MAG₂ in TBSMC buffer (20 mM Tris, pH 7.4; 137 mM NaCl; 1 mM CaCl₂; 1 mM MgCl₂) and the binding competed with varying concentrations of unlabeled aptamer (see pipetting scheme in FIG. 9.1). Incubation was carried out at 37° C. for 15 min. Subsequently, the solutions were pipetted on a Minifold Device equipped with a supported nitrocellulose membrane and Whatman filter paper and were washed with buffer using vacuum. Residual radioactivity on the filter due to tenascin-C bound labeled aptamer was quantified using a Phosphorimager. EC₅₀ values were calculated using GraphPadPrism 3.02 (San Diego, Calif., USA) plotting one-side competition non-linear regression curves.

Binder | EC50 [nM]
B1 | 19
B2 | 20
B3 | 39
B4 | 14
B5 | 2
B6 | 14
